According to patent US20210388087A1 (Chugai, published 2021):
Changes are numbered by the printed parent chain. One block for each binder: values may come before it.

Target: T1, CD3 epsilon homodimer protein (UniProt P07766 23-126)
T1 construct: also called CD3 (CD3 epsilon)
Assay: SPR, antibody over immobilised CD3e homodimer;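 further: SPR at 25 °C with CD3 epsilon homodimer amine-coupled to a CM4 sensor chip and antibody flowed over as analyte in HBS-EP+ running buffer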

T1 sequence (P07766 23-126): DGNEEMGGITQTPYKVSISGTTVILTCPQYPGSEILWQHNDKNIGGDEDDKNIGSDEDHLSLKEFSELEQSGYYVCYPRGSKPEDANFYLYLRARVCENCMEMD

B1: CE115HA000/GLS3000 S27eL (antibody, IgG1, name in Kabat numbering, V domains shown)
VH: QVQLVESGGGVVQPGRSLRLSCAASGFTFSNAWMHWVRQAPGKGLEWVAQIKAKSNNYATYYAESVKGRFTISRDDSKNSLYLQMNSLKTEDTAVYYCRYVHYGAYYGVDAWGQGTTVTVSS
VL: DIVMTQSPLSLPVTPGEPASISCRSSQSLVHLNRNTYLHWYQQKPGQAPRLLIYKVSNRFSGVPDRFSGSGSGTDFTLKISRVEAEDVGVYYCGQGTQVPYTFGQGTKLEIK
notes: one-arm IgG1
- KD ratio to GLS3000: 1.06

B3: CE115HA000/GLS3000 S56G (antibody, IgG1, name in Kabat numbering, V domains shown)
VH: B1 VH
VL: B1 VL with L32S, S61G
notes: one-arm IgG1
- KD ratio to GLS3000: 0.99

B4: CE115HA000/GLS3000 S56R (antibody, IgG1, name in Kabat numbering, V domains shown)
VH: B1 VH
VL: B1 VL with L32S, S61R
notes: one-arm IgG1
- KD ratio to GLS3000: 1.15

B5: CE115HA000/GLS3000 S27eN (antibody, IgG1, name in Kabat numbering, V domains shown)
VH: B1 VH
VL: B1 VL with L32N
notes: one-arm IgG1
- KD ratio to GLS3000: 1.01

B6: CE115HA000/GLS3000 S27eM (antibody, IgG1, name in Kabat numbering, V domains shown)
VH: B1 VH
VL: B1 VL with L32M
notes: one-arm IgG1
- KD ratio to GLS3000: 1.11

B7: CE115HA000/GLS3000 S27eW (antibody, IgG1, name in Kabat numbering, V domains shown)
VH: B1 VH
VL: B1 VL with L32W
notes: one-arm IgG1
- KD ratio to GLS3000: 1.32

B9: CE115HA000/GLS3000 S27eQ (antibody, IgG1, name in Kabat numbering, V domains shown)
VH: B1 VH
VL: B1 VL with L32Q
notes: one-arm IgG1
- KD ratio to GLS3000: 1.08

B10: CE115HA000/GLS3000 S27eV (antibody, IgG1, name in Kabat numbering, V domains shown)
VH: B1 VH
VL: B1 VL with L32V
notes: one-arm IgG1
- KD ratio to GLS3000: 0.95

B11: CE115HA000/GLS3000 S56P (antibody, IgG1, name in Kabat numbering, V domains shown)
VH: B1 VH
VL: B1 VL with L32S, S61P
notes: one-arm IgG1
- KD ratio to GLS3000: 0.98

B12: CE115HA000/GLS3000 S56H (antibody, IgG1, name in Kabat numbering, V domains shown)
VH: B1 VH
VL: B1 VL with L32S, S61H
notes: one-arm IgG1
- KD ratio to GLS3000: 0.96

B13: CE115HA000/GLS3000 S27eR (antibody, IgG1, name in Kabat numbering, V domains shown)
VH: B1 VH
VL: B1 VL with L32R
notes: one-arm IgG1
- KD ratio to GLS3000: 1.35

B15: CE115HA000/GLS3000 S27eP (antibody, IgG1, name in Kabat numbering, V domains shown)
VH: B1 VH
VL: B1 VL with L32P
notes: one-arm IgG1
- KD ratio to GLS3000: 1.06

B17: CE115HA000/GLS3000 S56N (antibody, IgG1, name in Kabat numbering, V domains shown)
VH: B1 VH
VL: B1 VL with L32S, S61N
notes: one-arm IgG1
- KD ratio to GLS3000: 0.9

B18: CE115HA000/GLS3000 S27eY (antibody, IgG1, name in Kabat numbering, V domains shown)
VH: B1 VH
VL: B1 VL with L32Y
notes: one-arm IgG1
- KD ratio to GLS3000: 1.1

B20: CE115HA000/GLS3000 S56Q (antibody, IgG1, name in Kabat numbering, V domains shown)
VH: B1 VH
VL: B1 VL with L32S, S61Q
notes: one-arm IgG1
- KD ratio to GLS3000: 0.97

B21: CE115HA000/GLS3000 S56A (antibody, IgG1, name in Kabat numbering, V domains shown)
VH: B1 VH
VL: B1 VL with L32S, S61A
notes: one-arm IgG1
- KD ratio to GLS3000: 1.18

B22: CE115HA000/GLS3000 S56V (antibody, IgG1, name in Kabat numbering, V domains shown)
VH: B1 VH
VL: B1 VL with L32S, S61V
notes: one-arm IgG1
- KD ratio to GLS3000: 0.94

B23: CE115HA000/GLS3000 S56L (antibody, IgG1, name in Kabat numbering, V domains shown)
VH: B1 VH
VL: B1 VL with L32S, S61L
notes: one-arm IgG1
- KD ratio to GLS3000: 1.03

B24: CE115HA000/GLS3000 S56K (antibody, IgG1, name in Kabat numbering, V domains shown)
VH: B1 VH
VL: B1 VL with L32S, S61K
notes: one-arm IgG1
- KD ratio to GLS3000: 1.21

B25: CE115HA000/GLS3000 S52P (antibody, IgG1, name in Kabat numbering, V domains shown)
VH: B1 VH
VL: B1 VL with L32S, S57P
notes: one-arm IgG1
- KD ratio to GLS3000: 7.38

B27: CE115HA000/GLS3000 S52D (antibody, IgG1, name in Kabat numbering, V domains shown)
VH: B1 VH
VL: B1 VL with L32S, S57D
notes: one-arm IgG1
- KD ratio to GLS3000: 0.94

B30: CE115HA000/GLS3000 S27eT (antibody, IgG1, name in Kabat numbering, V domains shown)
VH: B1 VH
VL: B1 VL with L32T
notes: one-arm IgG1
- KD ratio to GLS3000: 0.98

B31: CE115HA000/GLS3000 S56T (antibody, IgG1, name in Kabat numbering, V domains shown)
VH: B1 VH
VL: B1 VL with L32S, S61T
notes: one-arm IgG1
- KD ratio to GLS3000: 1.01

B32: CE115HA000/GLS3000 S52A (antibody, IgG1, name in Kabat numbering, V domains shown)
VH: B1 VH
VL: B1 VL with L32S, S57A
notes: one-arm IgG1
- KD ratio to GLS3000: 0.9

B33: CE115HA000/GLS3000 S56I (antibody, IgG1, name in Kabat numbering, V domains shown)
VH: B1 VH
VL: B1 VL with L32S, S61I
notes: one-arm IgG1
- KD ratio to GLS3000: 1.01

B34: CE115HA000/GLS3000 S56F (antibody, IgG1, name in Kabat numbering, V domains shown)
VH: B1 VH
VL: B1 VL with L32S, S61F
notes: one-arm IgG1
- KD ratio to GLS3000: 1.12

B35: CE115HA000/GLS3000 S52Y (antibody, IgG1, name in Kabat numbering, V domains shown)
VH: B1 VH
VL: B1 VL with L32S, S57Y
notes: one-arm IgG1
- KD ratio to GLS3000: 1.02

B38: CE115HA000/GLS3000 S56E (antibody, IgG1, name in Kabat numbering, V domains shown)
VH: B1 VH
VL: B1 VL with L32S, S61E
notes: one-arm IgG1
- KD ratio to GLS3000: 0.91

B43: CE115HA000/GLS3000 S56M (antibody, IgG1, name in Kabat numbering, V domains shown)
VH: B1 VH
VL: B1 VL with L32S, S61M
notes: one-arm IgG1
- KD ratio to GLS3000: 0.93

B45: CE115HA000/GLS3000 S56D (antibody, IgG1, name in Kabat numbering, V domains shown)
VH: B1 VH
VL: B1 VL with L32S, S61D
notes: one-arm IgG1
- KD ratio to GLS3000: 1.11

B46: CE115HA000/GLS3000 S52Q (antibody, IgG1, name in Kabat numbering, V domains shown)
VH: B1 VH
VL: B1 VL with L32S, S57Q
notes: one-arm IgG1
- KD ratio to GLS3000: 1.01

Further lines, results first:

- KD ratio to GLS3000: 1.59
B2: CE115HA000/GLS3000 T31E (antibody, IgG1, name in Kabat numbering, V domains shown)
VH: B1 VH
VL: B1 VL with L32S, T36E
notes: one-arm IgG1

- KD ratio to GLS3000: 1.1
B8: CE115HA000/GLS3000 T31I (antibody, IgG1, name in Kabat numbering, V domains shown)
VH: B1 VH
VL: B1 VL with L32S, T36I
notes: one-arm IgG1

- KD ratio to GLS3000: 10.8
B14: CE115HA000/GLS3000 T31P (antibody, IgG1, name in Kabat numbering, V domains shown)
VH: B1 VH
VL: B1 VL with L32S, T36P
notes: one-arm IgG1

- KD ratio to GLS3000: 19.6
B16: CE115HA000/GLS3000 T92E (antibody, IgG1, name in Kabat numbering, V domains shown)
VH: B1 VH
VL: B1 VL with L32S, T97E
notes: one-arm IgG1

- KD ratio to GLS3000: 1.61
B19: CE115HA000/GLS3000 T92L (antibody, IgG1, name in Kabat numbering, V domains shown)
VH: B1 VH
VL: B1 VL with L32S, T97L
notes: one-arm IgG1

- KD ratio to GLS3000: 1.35
B26: CE115HA000/GLS3000 T92A (antibody, IgG1, name in Kabat numbering, V domains shown)
VH: B1 VH
VL: B1 VL with L32S, T97A
notes: one-arm IgG1

- KD ratio to GLS3000: 26.7
B28: CE115HA000/GLS3000 T92P (antibody, IgG1, name in Kabat numbering, V domains shown)
VH: B1 VH
VL: B1 VL with L32S, T97P
notes: one-arm IgG1

- KD ratio to GLS3000: 1.1
B29: CE115HA000/GLS3000 S56Y (antibody, IgG1, name in Kabat numbering, V domains shown)
VH: B1 VH
VL: B1 VL with L32S, S61Y
notes: one-arm IgG1

- KD ratio to GLS3000: 4.46
B36: CE115HA000/GLS3000 T31N (antibody, IgG1, name in Kabat numbering, V domains shown)
VH: B1 VH
VL: B1 VL with L32S, T36N
notes: one-arm IgG1

- KD ratio to GLS3000: 0.88
B37: CE115HA000/GLS3000 T31K (antibody, IgG1, name in Kabat numbering, V domains shown)
VH: B1 VH
VL: B1 VL with L32S, T36K
notes: one-arm IgG1

- KD ratio to GLS3000: 1.91
B39: CE115HA000/GLS3000 T92I (antibody, IgG1, name in Kabat numbering, V domains shown)
VH: B1 VH
VL: B1 VL with L32S, T97I
notes: one-arm IgG1

- KD ratio to GLS3000: 2.55
B40: CE115HA000/GLS3000 T92Y (antibody, IgG1, name in Kabat numbering, V domains shown)
VH: B1 VH
VL: B1 VL with L32S, T97Y
notes: one-arm IgG1

- KD ratio to GLS3000: 30.9
B41: CE115HA000/GLS3000 T31D (antibody, IgG1, name in Kabat numbering, V domains shown)
VH: B1 VH
VL: B1 VL with L32S, T36D
notes: one-arm IgG1

- KD ratio to GLS3000: 0.81
B42: CE115HA000/GLS3000 T92S (antibody, IgG1, name in Kabat numbering, V domains shown)
VH: B1 VH
VL: B1 VL with L32S, T97S
notes: one-arm IgG1

- KD ratio to GLS3000: 1.12
B44: CE115HA000/GLS3000 S56W (antibody, IgG1, name in Kabat numbering, V domains shown)
VH: B1 VH
VL: B1 VL with L32S, S61W
notes: one-arm IgG1

- KD ratio to GLS3000: 11.2
B47: CE115HA000/GLS3000 T92D (antibody, IgG1, name in Kabat numbering, V domains shown)
VH: B1 VH
VL: B1 VL with L32S, T97D
notes: one-arm IgG1
